Reference: patent CN112592401A

Biological target: 灭活非洲猪瘟病毒抗原 (非洲猪瘟全病毒)
Experiment: ELISA with whole ASFV, as in Fig. 6 (scFv coated, inactivated ASFV captured)

B1: 抗非洲猪瘟病毒的ScFv抗体VH-VLλ11 (scFv)
scFv: MEVKLVESGGGLVQPGGSLRLSCVGSEYEFRGSLIHWVRQAPGKGLEWLATICTTDPITEYADSVKGRFTISRDSSQNTAYLQMDSLRGEDTARYYCGVAFSYGGGCHRMDLRGQGVEVVVGGGGSGGMSQTVIQEPAMSVSPGGTVTLTCAFSSGSESTRKYPIRFQQTPGQPPRLLIYHTNSRPTGVPSRFSGAISGNKAALTITGAQAEDEADYFCSLYIRTYNVPFGGGTHLTVL
Work on B1 yielded an OD450nm of 1.12 OD450nm.
